Measured values: the DeepSol protein solubility set

Assay: soluble on expression in E. coli; label from the status in PepcDB or PDB records

Sequence	soluble on expression in E. coli
MSEAIIAKKAEQVELIAEKMKAAASIVIVDSRGLTVDQDTVLRRSLRESGVEFKVIKNSILTRAAEKAGLDELKDVFVGPSAVAFSNEDVIAPAKVINDFTKTADALEIKGGAIEGAVSSKEEIQALATLPNREGMLSMLLSVLQAPVRNVAYAVKAVAENKEGAA	not soluble
MDMTDMTTTGSATEAATAAASSTPLPTFGQSLTEQLTPILGDAETQQLASLIAHLPTIKGQTDEQSIALYVDTLTQLKEKNSVFSGAALSESASIWMRSLQRVSSNGKMDSAELATQMNNALASQFQTWFADQLTDKVDSSLPTQFVSQFQLGTESTQAQQIAKLSAEELKSATGDIASFVDDLARQMSSSVVRESASSFLRNAFAHLPSMNLAQLKASDFLLTEANFVTNVSTQLQNVFKQIGITLTKDVADELAKRITWTPGISKQQLSEVLSEMATQVKGQFTAAYGETAGTENLRKALDAIIKSSDSLTLSSLFANFAVSLIHTEIDAFYNDKAIADIQKTQISADQAELIKNNTERDIRFQFEKMLKGESTGASFIERYETLRKNL	not soluble
MTNFEYYRDFDDFQRRETINFFLSKFPLASQKQLQDFLEQARQAYVQLRQTNPAHLDWNQTLLYLAQKFLPEKQSEKDRLKKILVLQEQLKVRYEGEIKRQSQQNSELLIQLGQRDEEIIQMQQLFKEKERQLEVYQKQLNEAKEYNHKLEEHYNKTLEEALKEYEQQCTDAIHRRDEEIQAIFTSKLNEKNSEITQLQTYLQSAVDENEALQKQHKLVLFKNQKYEKMVSDLQVDLARIQEINNSLTSEKRDFQRANNDLVKQYNKLKNRLEQKLGEITNAQVNGQTHTVSLADTSQQFHRPQEAVIPQTQVISYTLDDMDDDMEVEETPPTTNKDLPRGATQPKRNSIKRVSKLID	soluble
GPGSMWVEAYRAGCAEVSADVREDVSSSGATGELIVRGNTFDNFKNRVTDTDVQAILAALRVCPGMSALYLPYNNITSEGGVLLGKALGHQLDSIITLDVQYNSLGAEAGVAIAQGLQRNDSLCHVTLAGNPLGGCCGAALGEALRQNMNLAVLDLFNTDLGMEALVHICRSLEGNKGLSSLNIGRPLLHGVDELESVVNHLSIALQRNSTLEELHMAYFGLVDDCLQTLVLALCGSAVTTLCIKGNKVSQDAGQLLARLLDRRQDFRNLDVSCNRLRDAGAAALAKGVAHHPQLESLGLESCTISERGLVVLVESLKSCATVRRLTLWGNDVTPAVASSLTATFCDLRELDYIDVGVMEQDGQLVAYRA	not soluble
MGSDKIHHHHHHMNNLYHLKVRCSSLHKIIGEPKSKADKEAGKLTDTAKSAVREMAKFDLFGYNAFEGNKYTQKGNELEEQAIKLSGVTRGLALKKNTERRENEFITGECDIYVPSRKLIIDTKCSWDIGSHPFFTDEAQEKAKKAGYDIQMQGYMWLWDCDQAQIDFVLFPTPLNLISAYDSDFKLIDLVEQIPQIRRITTVIIQRDNELIDKIKERVSAAQKYYDQLISEMS	not soluble
MAHQEHFQFGYRRHRDQDRQDPARHPVVVVGAGPVGLSLAIDLAQRGQNVVLLDDADRIGEGSRAICFSKRALEVWDRLGVGAQMVEKGVVWQVGKIFRRDEMVYRFDLLPETGHKMPAFINLQQYYAEAFLVGRVQQLPQIDLRWRNKVTALAQHNDHAELTIETPDGPYRLAADYVIACDGARSSLRGMVGAEFAGEVFEDQFLIADVKMTAAFPTERWFWFDPPFHSGQSALLHRQPDDVWRIDLQIGPEADAAVERQPERVRPRIERMLGHGDFSFEWISIYKFQCRRMQRFLHERVIFAGDSAHQVSPFGARGANSGLEDGENLAWKLDLVLRGQAPASLLDSYDIERSQAADDNIRHSTRSTDFIAPHSKQERRLRDAVLALAHDVEFAKRMVNAGRLSTPSVYQSSLSTDDVDVWSSGPVPGAAMRDAPLRAADGTLVYLTEAFMQAGGGFVLLERANGAAAPVPQGVRSLRIGGDAPLRDDEGVFAARYDATPGAAYLLRPDGYVAARFRHPTQAAVDAALARACGRLEHHHHHH	not soluble
MPLLDLLRPVSDEELRVLSERNPGWQFERLADGRLIVSPTGGESGRIRAAVLGPLYRWNEARGLGVVFDASTGFKLPDGSVLAPDAAFLLGKRWQALSQEAREGFPPLAPDAVFEVRSRSQGLEELREKAAWYLANGVRLVVLLDPYLHRVEVFRPGGVEGHQGPERVPLDPGLPGFALETRGLFLP	soluble
MGSDKIHHHHHHMNWKVTIKNTIEELAKLKKDVKIENEGDPEHELSDAEDKVMKIELEEEFKPTMYSLYEFKSLNDKRIASIDSSSRYLRDFSVNTCLIGLSVYSNREGFIDGPFTVDIPYIGISSYREILESLKIDDINVRYKNVVNYYYVNEPNNEYKIDDIADELRLEAENVGLKRVIQNHDIVIIDGPIYPTPLELTEEINLETEARRKHRLAYAKLVNERIELLNNNVIGVVKRLENSKKLWRVKEINETIGNVKRMKDVTIIELIDERLCRKNYEYVCTIGPFKIEYALEVKDEDGRNVIEKVPTKYAYYVIIRKKYFPPTFLRIESTNKNLDISPVLSRLTERLMPTYIEIVDRRSKRISASLFLYAYEIASNYLNIIHDDKMGYLSVISQFTSE	not soluble
MRKDRVTQGVDRIMQAIADKEFELGQAIPGEAKLAEFLDVSRPTMREVVRTLADRGVLEVVHGRGTFVAPLDHWSDVRSRVDFISRTLSPGEVGFHLTEVRRMIEVGSCGHAAARAEDCDLDRMQTALDAYDAALEAHDVAGIAKSDVEFHNAIFEATKNPVVTALMIPLEGELAASRLRTSAVSEVAERAQEHHRRIYSAIKASDEEGAKNAMRAHMSQTFDDLQRFVGEY	not soluble
MGSDKIHHHHHHEDFLQKDPPSSPSQSVFWQKKSDFESALAGTYSVMYSGVFSQIMPCLDGLTDNAIVQHSEGTYGWAKTIAQGDLTPNQGGFVTDIYGNCYKGIARVHILMEQLDQYTGSDISADEKKFMLAQCKALRGYFYSWLYQCYKEVPVVTQSLDLNTMYQPKATRAEVLNRVMTDYDEAISELPDKLYSDSQTSGRFTVSAVKALKARILLFDAYDSNGKAISSKMEEVLTLLQSIKGYSLAARVRDNFISEKQLASPEIMFSVRFLRPNLTHSMDLYYGAWAVLDPTRNMVDAFECTDGKPWGESPLTVRPDESILYGNDDALKKAERAKMFMNRDRRLYESVNHSMMANFVDDGFKDEEVQVNESNNKGPTGFSALKYVQPTDVTPGYSTVSDADIVVLRYAHVLLMIAEAENEAHGATTTALNAINEVRTRSGQPAIEAGISQDDLRERIRNEWRIETCFEGLRYFQLKRWKLMDKRVNGVEDPAYPGYIKVYKPAFEFFPIPQSEIDKAGGVLKQDPAYE	not soluble
MCMAQRLNVNPTRMELSKLKKRLATATRGHKLLKDKQDELMRQFINLIKYNNQLRDEVEKELGSSLKDFVMARAVMSSEFLEEAIAYPKEEIEVEVGNKNIMSVNVPIMNFKRKLEGDEGSIYPYGFMNTSAELDDAISKLYGILPKLLELAEVEKSGQLMADEIEKTRRRVNALEYMTIPQLKETIRYIRMKLDENERSALTRLMKVKSMIEQRGLEHHHHHH	not soluble
MAHHHHHHMNDETKVFNKCFKKISNCYTLNKKGEKENSTGNQFVLHNCIQTLLSDPIVVLYTDNNYICTGSLTGKVCLYKITIKENKETNTNISYVYNNNNNITDDEKKCINDLNNREELKKENYSKSTIDDVVISKKELNNHNNINNNNNNNNNNNNNSEIIKKYHILCMFRNNSIKSIYIDKNNIYICYESCIDVFCVRSYQFIQKINLDVTNNKQVIYYENYILFNNSKSLFIYDITSNFSSYFYKNFLKNIVIFDFNINYLLCYKNNFGKCHIRVLQIFADAQKCEHELIFCVDFSSKFISHGKFLDDEKIIVAKNGKRLIIFDFKKAIDMYRIRKLKKKILDIHKSVENMLFILVENQIFIFNLSTFVFYKTVQLPKGLFYFKWSYFIRYKNRKIIFSSDKGVYYIDYSIEENV	soluble
GPGSMMTPEDATGLEAARKQKIHNLKLKTACLENEELVQELHISDWSETQRQKLRGAHEKGEELLASVEVGTKWNLMEAYDLAKLMRVCGLEMSQRELYRPEDKPQFMDIIGVKKVLQDLRQNRNKTRVVSFTQLIDNSIAKMEKVEEELRRSQLDATQLAQVPTRTVKMMEDIMNATQIQNALASTDDQMQTQLAQLEKTNEIQNVAMHDGEMQVAEEQMWTKVQLQERLIELLKDKFGLIGKCEEENAQFKEIYEVQKQANQETSQMKDAKRRLRQRCETDLKHIQDAIQKADLEDAEAAKRYAGNKERSERAIKENEEMQEEAWNKIQDLERQLQNLGTDRFDEVKRRIEEVDREEKRRVENAQFLEIAAQHKKLLELTVYNCDLAMRCTGLVEELVSEGCAGVKARYDKTNQDLAALRLEVHKEHLEYFRMLYLTLGSLIYKKEKRLEEIDRNIRLAHIQLEFCVETFDPNAKKHADMKKELYKLRQGVEEELAMLKEKQAAALDDFKESEEALDAAGIEFSHPVDENNEEVLTRRSKMVEYKSHLTKQEEVRIAAEREEIKRARLLRSGGESAAAQITSGSMNADYAASAQLEL	soluble
MSITINKLEIENVKRIKAVKIEPSATGLTIIGGNNNQGKTSVLDAIAWALGGNKYKPSQAMREGSQVPPTLKITMSNGLIVERKGKNASLKVIDPNGQKGGQQLLDSFVEELAINLPKFMDSTPKEKADVLLEIIGVGDQLAELELKEKEIYNQRHAIGVIADQKEKFAKEMTYYPDAPKQLVSISELIQQHQAILAKNGENAQKRQNVERIRYDYNQSILEVDRLRKLLADAEAKTNKLSEDLKIANTDAMDLHDESTAEIEANIADIDEVNRKVRANFDKDKAEEDAKQQREQYNILTNDIESIRQQKRDLLINADLPLEGLSVDDGKLLYLGQEWDNMSGSQQLIVATAIVRKLKPDCGFVLIDKLEQMDNITLEQFGKRLEQEGLQAIATRVSIGEECAIIIEDGYSVENKAHNFKTAEGGNFAETVAPTWKGEF	not soluble
MAMKDKLKNFFSMEDEEYEYEYIETERESHVEHEQKEKPAYNGNKPAGKQNVVSLQSVQKSSKVVLSEPRVYAEAQEIADHLKNRRADVVNLQRIQHDQAKRIVDFLSGTVYAIGGDIQRIGSDIFLCTPDNVDVSGTISELISEDEHQRWLEHHHHHH	not soluble
MTTGNLQVAIYGFTARSRAFEPAGICYETRLIRDKLTLGHCTLPIYKNSPVAKPVTEQQRKKSSEEPAELRKDLFDADNEKYEKYLMKLDPNDCKNQDHYKVLGLSKLRWQATSDEIRFCYRQKVLKHHPDKKKHRGIVMEKEEYFTCITKAYEQVGMSDVKRQAFDSVDHKFNDIIPNEKSINHNNFYNELAPVFQLNSRWSNIKPVPELGKSDATREDVENFYDFWFNFQSWREFSYLDEEDKERGEDRYERREMEKQNKAERERRRKEEAKRIRKLVDIAYAKDPRIIKFKKEQQAKKDKAKEDKQRAIREKQEAIDREKREKEEAEAKQKEEADRKAKEEREREKKERDIAKKAMSQQRKRLKKLADEAGHWTENPRDKLTEMERIERICIGFTVDQLRELCEKVESLSIASEIQTALTDAEILKKEAAGAKVTITEDKNKENEKQADKETWTSEEIQLLVKASNTFPPGTVERWVQIADYINEHRKDSTGLPPKTEKQVIKQCKAVQTMNVKLPSTTQNQLGTALPDEDVWSATEQKTLEDAIKKHKSSDPERWEKISTEVGTKSKKACIRRFKYLVQMVKNKK	not soluble
MSLAETLEKNAIDKSEYPQTAELENRCVNILADLWNAPKDMSYLGTSTVGSSEACMLGGLAMKFRWRNNAEKRGLDIQAKRPNLIISSGYQVCWEKFCVYWDVDMRVVPMDKNHLSLDVDKVFDLVDEYTIGVVGILGITYTGKFDDIQLLDEKVEAYNETNEHQLVIHIDGASGAMFTPFVNPELPWDFRLKNVVSINTSGHKYGLVYPGVGWILWKDKEYLPKELIFEVSYLGGSMPTMAINFSRSASQIIGQYYNFLRYGFEGYREIHEKTKKTAIYLAKTVEKSGYFEIINDGANLPIVCYKMKEGLDVEWTLYDLADQLLMKGWQVPAYPLPADLSDTIIQRFVCRADLGYNVAEEFAADFADAIHNLEHARVLYHDKERNDSYGFTHEGHHHHHH	soluble
